Reference: US20230151091A1 (NEW YORK UNIVERSITY, published 2023)
Positions count from the first letter of the chain named. Blank lines part the entries; values can stand above or below the binder they belong to.

How the values were obtained:
[1] = biological target: T1, mFz: Fz domain and C-terminal flanking sequence of mouse MuSK (D307 to T494) with C-terminal Avi- and … (mouse, UniProt Q61006 307-494, limits assumed, biotinylated in vitro using the BirA enzyme); test: bead-binding titration, IgG format: antigen immobilized on streptavidin beads, MFI by flow cytometry, curve is the 1:1 fit
T1 construct: also called mouse Fz; not shown: Avi- and His6-tags
T1 sequence (looked up): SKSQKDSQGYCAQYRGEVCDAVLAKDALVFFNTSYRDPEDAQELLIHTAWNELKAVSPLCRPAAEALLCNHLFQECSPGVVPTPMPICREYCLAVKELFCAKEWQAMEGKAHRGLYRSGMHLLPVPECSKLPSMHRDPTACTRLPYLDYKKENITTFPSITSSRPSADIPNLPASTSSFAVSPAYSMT

[2] = biological target: T2, mECD: full-length extracellular region of mouse MuSK (E22 to T494) with C-terminal Avi- and His6-tags (mouse, UniProt Q61006 22-494, biotinylated in vitro using the BirA enzyme); test: as above
T2 construct: range 22-494; also called mouse ECD; not shown: Avi- and His6-tags
T2 sequence (looked up): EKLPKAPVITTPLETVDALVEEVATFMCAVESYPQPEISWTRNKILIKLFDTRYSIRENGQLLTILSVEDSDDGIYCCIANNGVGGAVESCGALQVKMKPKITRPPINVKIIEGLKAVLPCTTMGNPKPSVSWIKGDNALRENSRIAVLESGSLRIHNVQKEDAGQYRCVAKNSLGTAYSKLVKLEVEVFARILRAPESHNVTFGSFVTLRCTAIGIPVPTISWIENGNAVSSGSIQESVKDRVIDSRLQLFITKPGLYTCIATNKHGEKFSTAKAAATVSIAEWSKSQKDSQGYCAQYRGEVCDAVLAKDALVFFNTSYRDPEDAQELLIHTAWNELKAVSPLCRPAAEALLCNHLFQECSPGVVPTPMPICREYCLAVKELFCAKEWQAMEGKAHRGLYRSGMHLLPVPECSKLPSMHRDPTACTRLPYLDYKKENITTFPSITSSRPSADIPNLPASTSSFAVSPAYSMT

[3] = biological target: T3, hECD: full-length extracellular region of human MuSK (E22 to T495) with C-terminal Avi- and His6-tags (human, UniProt O15146 22-495, biotinylated in vitro using the BirA enzyme); test: bead-binding assay, IgG format: biotinylated antigen on streptavidin beads, flow cytometry, 1:1 fit; average ± s.d., n=3
T3 construct: also called human ECD; not shown: Avi- and His6-tags
T3 sequence: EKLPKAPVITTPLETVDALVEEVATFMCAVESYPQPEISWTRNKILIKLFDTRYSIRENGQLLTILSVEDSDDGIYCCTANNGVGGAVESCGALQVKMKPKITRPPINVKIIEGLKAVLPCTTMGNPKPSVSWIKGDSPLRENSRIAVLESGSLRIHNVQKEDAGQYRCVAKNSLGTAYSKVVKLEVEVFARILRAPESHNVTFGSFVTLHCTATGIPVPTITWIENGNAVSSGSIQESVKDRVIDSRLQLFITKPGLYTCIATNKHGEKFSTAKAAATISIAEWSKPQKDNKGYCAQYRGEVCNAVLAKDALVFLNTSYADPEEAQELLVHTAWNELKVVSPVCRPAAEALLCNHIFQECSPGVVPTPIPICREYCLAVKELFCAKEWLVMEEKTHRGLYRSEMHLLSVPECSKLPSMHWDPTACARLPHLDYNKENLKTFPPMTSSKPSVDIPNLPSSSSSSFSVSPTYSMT

[4] = biological target: T4, hFz: Fz domain and C-terminal flanking sequence of human MuSK (K314-T495) with C-terminal Avi- and His6-tags (human, UniProt O15146 314-495, biotinylated in vitro using the BirA enzyme); test: as above
T4 construct: also called human Fz; not shown: Avi- and His6-tags
T4 sequence: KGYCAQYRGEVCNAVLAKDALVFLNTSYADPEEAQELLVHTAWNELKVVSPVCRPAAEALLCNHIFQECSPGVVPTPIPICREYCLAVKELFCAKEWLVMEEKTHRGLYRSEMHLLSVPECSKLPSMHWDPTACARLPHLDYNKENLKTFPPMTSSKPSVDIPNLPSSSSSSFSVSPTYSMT

[5] = biological target: T1, mFz: Fz domain and C-terminal flanking …; test: as above
[6] = biological target: T2, mECD: full-length extracellular region …; test: as above
[7] = biological target: T5, human MuSK (human, UniProt O15146 24-495); test: Biacore T200, off rate at pH 5.5 against pH 7.4
T5 construct: Recombinant protein coated on ELISA plates (R&D Systems cat. 10189-MK) or on the Biacore chip; also called human muscle-specific tyrosine protein kinase; full length human MuSK
T5 sequence: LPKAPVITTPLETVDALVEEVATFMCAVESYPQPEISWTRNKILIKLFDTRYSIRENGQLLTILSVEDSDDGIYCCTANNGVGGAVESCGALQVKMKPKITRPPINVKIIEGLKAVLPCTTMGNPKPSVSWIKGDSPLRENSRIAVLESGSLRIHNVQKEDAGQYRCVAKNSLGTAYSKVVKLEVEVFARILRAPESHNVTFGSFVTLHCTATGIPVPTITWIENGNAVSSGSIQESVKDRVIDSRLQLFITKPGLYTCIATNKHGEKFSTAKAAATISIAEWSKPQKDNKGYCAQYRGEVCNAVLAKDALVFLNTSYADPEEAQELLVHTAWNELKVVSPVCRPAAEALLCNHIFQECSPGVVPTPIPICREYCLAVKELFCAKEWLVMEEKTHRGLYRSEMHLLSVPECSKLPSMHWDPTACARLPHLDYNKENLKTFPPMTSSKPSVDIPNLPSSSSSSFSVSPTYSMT
Procedure: (§1) In order to study pH dependent binding of the antibodies described herein to MuSK, a Biacore T200 was used. Briefly, a CMS chip was coated with human and mouse MuSK (200RU) and 22.2 nM of Fab was applied and kinetic parameters calculated. Association was done at pH7.4, dissociation was done at pH 7.4 and also at pH 5.5. The following Fabs were tested, X2, X2m4, X3, X9, X17, 3B2 and 3B2g2m1 (Table 10 and FIG. 23). […] Binding affinity at pH 5.5 is very low, resulting in a rapid dissociation at endosomal pH allowing 3B2g2m1 to recycle.

[8] = biological target: T6, mouse MuSK (mouse, UniProt Q61006 22-494, limits assumed); test: Biacore T200, off rate at pH 5.5 against pH 7.4
T6 construct: Coated on ELISA plates or on the Biacore chip; also called full length mouse MuSK; mouse MuSK (in house produced in HEK293 cells)
T6 sequence (looked up): T2 sequence (looked up)
Procedure: as §1

[9] = biological target: T5, human MuSK; test: Biacore T200, MuSK on chip (200RU), 22.2 nM Fab, dissociation pH 5.5
Procedure: as §1

[10] = biological target: T6, mouse MuSK; test: as above
Procedure: as §1

[11] = biological target: T4, hFz: Fz domain and C-terminal flanking …; test: bead-binding titration, Fab format: antigen immobilized on streptavidin beads, MFI by flow cytometry, curve is the 1:1 fit
[12] = biological target: T1, mFz: Fz domain and C-terminal flanking …; test: as above
[13] = biological target: T3, hECD: full-length extracellular region …; test: bead-binding assay, Fab format: biotinylated antigen on streptavidin beads, flow cytometry, 1:1 fit; average ± s.d., n=3
[14] = biological target: T4, hFz: Fz domain and C-terminal flanking …; test: as above
[15] = biological target: T1, mFz: Fz domain and C-terminal flanking …; test: as above
[16] = biological target: T2, mECD: full-length extracellular region …; test: as above
[17] = biological target: T5, human MuSK; test: Biacore T200, MuSK on chip (200RU), 22.2 nM Fab, dissociation pH 7.4
Procedure: as §1

[18] = biological target: T6, mouse MuSK; test: as above
Procedure: as §1

B2: hIgG1-X2 (antibody, V domains shown)
VH: EVQLVESGGGLVQPGGSLRLSCAASGFTVSSSSIHWVRQAPGKGLEWVASISSSYGSTSYADSVKGRFTISADTSKNTAYLQMNSLRAEDTAVYYCARSEGDRYVSGYMGMDYWGQGTLVTVSS
VL: DIQMTQSPSSLSASVGDRVTITCRASQSVSSAVAWYQQKPGKAPKLLIYSASSLYSGVPSRFSGSRSGTDFTLTISSLQPEDFATYYCQQSGVWLITFGQGTKVEIK
notes: human IgG1 Fc containing LALA mutations; also called hIgG-X2; X2 in the human IgG1 format
- EC50 (read off the curve) [1]: ~0.3 nM
- EC50 (read off the curve) [2]: ~0.4 nM
- Kd [3]: 0.478 nM
- Kd [4]: 0.421 nM
- Kd [5]: 0.265 nM
- Kd [6]: 0.307 nM

B4: X17 Fab (Fab, V domains shown)
VH: EVQLVESGGGLVQPGGSLRLSCAASGFTISYSSIHWVRQAPGKGLEWVASIYSSSGSTYYADSVKGRFTISADTSKNTAYLQMNSLRAEDTAVYYCARGDHGYYVFGYLGMDYWGQGTLVTVSS
VL: DIQMTQSPSSLSASVGDRVTITCRASQSVSSAVAWYQQKPGKAPKLLIYSASSLYSGVPSRFSGSRSGTDFTLTISSLQPEDFATYYCQQSYKPGALITFGQGTKVEIK
notes: Fab format
- Ratio pH 5.5/7.4 of off rate [7]: 7.7
- Ratio pH 5.5/7.4 of off rate [8]: 1.7
- koff [9]: 0.00678 s⁻¹
- koff [10]: 0.002 s⁻¹
- EC50 (read off the curve) [11]: ~0.4 nM
- EC50 (read off the curve) [12]: ~0.3 nM
- Kd [13]: 0.52 nM
- Kd [14]: 0.38 nM
- Kd [15]: 0.47 nM
- Kd [16]: 0.63 nM
- koff [17]: 0.00088 s⁻¹
- koff [18]: 0.0012 s⁻¹

More lines, in order of falling Kd [3], values ahead:

- EC50 (read off the curve) [1]: ~0.1 nM
- EC50 (read off the curve) [2]: ~0.1 nM
- Kd [3]: 0.113 nM
- Kd [4]: 0.079 nM
- Kd [5]: 0.096 nM
- Kd [6]: 0.118 nM
B1: mIgG2a-X3 (antibody, V domains shown)
VH: EVQLVESGGGLVQPGGSLRLSCAASGFTISSSSIHWVRQAPGKGLEWVASISSSSGYTYYADSVKGRFTISADTSKNTAYLQMNSLRAEDTAVYYCARSWYEMWMSGYFGFDYWGQGTLVTVSS
VL: B2 VL with G92S, V93S, W94S
notes: mouse IgG2a format; also called X3 in mouse IgG2a format

- EC50 (read off the curve) [1]: ~0.07 nM
- EC50 (read off the curve) [2]: ~0.08 nM
- Kd [3]: 0.074 nM
- Kd [4]: 0.057 nM
- Kd [5]: 0.07 nM
- Kd [6]: 0.079 nM
B3: hIgG1-X3 (antibody, V domains shown)
VH: B1 VH
VL: B2 VL with G92S, V93S, W94S
notes: human IgG1 Fc containing LALA mutations; also called X3 in human IgG1 format
